# Results from the supplement of paper PMC7877785.
# ± gives the uncertainty stated by the source.
# Experiment: self-splicing fitness, log relative to wild type (ln ratio); higher = more splicing; Tetrahymena group I intron in knt gene, E. coli kanamycin selection, DiMSum; sequences stand for … in CUCUCU…GGAGGGAAAAGUUAUCAGGCAUGCACCUGGUAGCUAGUCUUUAAACCAAUAGAUUGCAUCGGUUUAAAAGGCAAGACCGUCAAAUUGCGGGAAAGGGGUCAACAGCCGUUCAGUACCAAGUCUCAGGGGAAACUUUGAGAUGGCCUUGCAAAGGGUAUGGUAAUAAGCUGACGGACAUGGUCCUAACCACGCAGCCAAGUCCUAAGUCAACAGAUCUUCUGUUGAUAUGGAUGCAGUUCACAGACUAAAUGUCGGUCGGGGAAGAUGUAUUCUUCUCAUAAGAUAUAGUCGGACCUCUCCUUAAUGGGAGCUAGCGGAUGAAGUGAUGCAACACUGGAGCCGCUGGGAACUAAUUUGUAUGCGAAAGUAUAUUGAUUAGUUUUGGAGUACUCGUGGUCG
# Procedure, shortened: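 A randomised library covering all eight P1ex-region intron nucleotides was built with the intron in the knt kanamycin-resistance gene on pET-22b(+) and held in E. coli BL21(DE3). Cells were grown overnight at 37°C or 30°C on LB agar, with or without 25 μg/mL kanamycin, plus 100 μg/mL carbenicillin, 50 μM IPTG and 0.2% rhamnose, and pooled colonies were amplicon-sequenced on an Illumina HiSeq 2500. DiMSum fitness is the error-weighted combination of wild-type-normalised replicate fold changes, kanamycin versus none.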
Sequence,self-splicing fitness (ln) (30 °C),self-splicing fitness (ln) (37 °C)
CGCUAGCAAUAUUACGUGGG,-3.6 ± 0.17,-2.74 ± 0.21
CGCUAGCAAUAUUACGUUAC,-3.23 ± 0.31,
CGGAAGCAAUAUUACGACCA,0.623 ± 0.2,-0.13 ± 0.27
CGGAAGCAAUAUUACGACGA,-1.75 ± 0.21,-0.502 ± 0.15
CGGAAGCAAUAUUACGACUG,-2.02 ± 0.28,-1.12 ± 0.23
CGGAAGCAAUAUUACGAGCG,-1.14 ± 0.098,-1.11 ± 0.095
CGGAAGCAAUAUUACGAUAA,,-1.52 ± 0.25
CGGAAGCAAUAUUACGCACA,-1.07 ± 0.15,0.386 ± 0.16
CGGAAGCAAUAUUACGCCAC,-3.64 ± 0.18,-2.78 ± 0.26
CGGAAGCAAUAUUACGCGAU,-3.28 ± 0.28,-2.05 ± 0.33
CGGAAGCAAUAUUACGGAUU,-4.05 ± 0.2,-2.36 ± 0.13
CGGAAGCAAUAUUACGGGAG,-2.37 ± 0.1,-2.02 ± 0.17
CGGAAGCAAUAUUACGGGCU,-3.27 ± 0.18,-3.3 ± 0.25
CGGAAGCAAUAUUACGUCUG,-3.74 ± 0.2,-2.46 ± 0.19
CGGAAGCAAUAUUACGUGUG,-1.38 ± 0.051,-0.291 ± 0.067
CGGAAGCAAUAUUACGUUUG,-1.9 ± 0.071,-1.35 ± 0.089
CGGCAGCAAUAUUACGACUG,-1.74 ± 0.24,-0.611 ± 0.26
CGGCAGCAAUAUUACGAGGA,-4.01 ± 0.43,-2.28 ± 0.26
CGGCAGCAAUAUUACGCACG,-2.17 ± 0.15,-2.1 ± 0.23
CGGCAGCAAUAUUACGCAGA,-3.27 ± 0.31,-2.48 ± 0.22
CGGCAGCAAUAUUACGCCAC,-2.97 ± 0.23,-1.52 ± 0.3
CGGCAGCAAUAUUACGCCAG,-1.53 ± 0.21,
CGGCAGCAAUAUUACGCCCC,-1.66 ± 0.31,-0.44 ± 0.36
CGGCAGCAAUAUUACGCCUC,-3.4 ± 0.27,-1.59 ± 0.25
CGGCAGCAAUAUUACGCGAA,-2.67 ± 0.13,-1.68 ± 0.15

Sequence,self-splicing fitness (ln) (30 °C),self-splicing fitness (ln) (37 °C)
CGGCAGCAAUAUUACGCGAC,-4.41 ± 0.42,-1.36 ± 0.18
CGGCAGCAAUAUUACGCUUC,,-1.56 ± 0.29
CGGCAGCAAUAUUACGGGAG,-2.36 ± 0.15,-1.77 ± 0.18
CGGCAGCAAUAUUACGGGAU,-3.24 ± 0.18,-2.38 ± 0.23
CGGCAGCAAUAUUACGGGUC,-2.95 ± 0.21,-1.74 ± 0.22
CGGCAGCAAUAUUACGGUCG,-3.51 ± 0.27,-2.94 ± 0.33
CGGCAGCAAUAUUACGUAGC,-4.16 ± 0.36,-3.03 ± 0.24
CGGCAGCAAUAUUACGUCAA,-1.53 ± 0.11,-1.43 ± 0.13
CGGCAGCAAUAUUACGUCAU,-2.83 ± 0.12,-1.09 ± 0.092
CGGCAGCAAUAUUACGUGCA,-1.03 ± 0.27,-0.293 ± 0.23
CGGCAGCAAUAUUACGUGGU,-4.44 ± 0.25,-1.93 ± 0.12
CGGCAGCAAUAUUACGUUAA,-2.44 ± 0.16,-1.1 ± 0.11
CGGCAGCAAUAUUACGUUAG,-0.86 ± 0.057,0.0318 ± 0.078
CGGGAGCAAUAUUACGAAAG,-2.47 ± 0.42,-2.55 ± 0.42
CGGGAGCAAUAUUACGACAU,-4.013 ± 0.038,-2.67 ± 0.046
CGGGAGCAAUAUUACGACGA,-1.82 ± 0.36,
CGGGAGCAAUAUUACGAGCA,-3 ± 0.19,-3.2 ± 0.31
CGGGAGCAAUAUUACGCCAC,-3.63 ± 0.29,-2.63 ± 0.41
CGGGAGCAAUAUUACGCGAC,-3.85 ± 0.29,-1.59 ± 0.36
CGGGAGCAAUAUUACGCGGU,,-1.72 ± 0.29
CGGGAGCAAUAUUACGCUUU,,-0.957 ± 0.27
CGGGAGCAAUAUUACGGCAC,-3.74 ± 0.28,-1.62 ± 0.23
CGGGAGCAAUAUUACGGGAG,-2.76 ± 0.22,-2.44 ± 0.3
CGGGAGCAAUAUUACGGGGG,-2.37 ± 0.3,
CGGGAGCAAUAUUACGGUAG,-3.73 ± 0.29,-2 ± 0.27
